Assay: soluble on expression in E. coli; label from the status in PepcDB or PDB records

Sequence | soluble on expression in E. coli
MKYPTIIDSQQLFREPDHPLKAGLDPKCRSTKPLCPDTFAKVMKTIDTFIFDADGVLWLGESVMPGSPRLIDYLVKHNKQIIVLTNNATKSRAVYAKKLAKLGYNSSKMNKNNLVNPAAVVADTLHRAGLDGKRVYLIGEQGLRDEMDELGIEYFGHGPEKKQDEADGSGAFMYDIKLEENVGAVVVGYEKHFDYIKMMKASNYLREEGVLFVATNEDETCPGPNPEVVIPDAGPIVAAIKCASGRDPLTVGKPCTPAFNYIKRKWNINPSRTMMIGDRTNTDVKFGRDHGMKTLLVLSGCHQIEDIIENQMNERDDMVPDYVAPCLGALVPERI | not soluble
MKYVFIENHRAEFSIKAMCRVLRVARSGWYVWLRRRHQMSLRQQFRLTCDAAVHKAFFEAKQRYGAPRLADELPEFNIKTIAASLRRQGLRAKASRKFSPVSYRAHGLPVLENLLEQDFSASGPKPEVGG | not soluble
MLCAVYKSSRKADTYLFVNKRDCFDDVPQALLDMFGVPQLVMVFPIVKRESLGIADINKVRAALEEKGFYLQIPPPQVNLLAEHRENLGIKD | soluble
MLCEIECRALSTAHTRLIHDFEPRDALTYLEGKNIFTEDHSELISKMSTRLERIANFLRIYRRQASELGPLIDFFNYNNQSHLADFLEDYIDFAINEPDLLRPVVIAPQFSRQMLDRKLLLGNVPKQMTCYIREYHVDRVIKKLDEMCDLDSFFLFLHGRAGSGKSVIASQALSKSDQLIGINYDSIVWLKDSGTAPKSTFDLFTDILLMLKSEDDLLNFPSVEHVTSVVLKRMICNALIDRPNTLFVFDDVVQEETIRWAQELRLRCLVTTRDVEISNAASQTCEFIEVTSLEIDECYDFLEAYGMPMPVGEKEEDVLNKTIELSSGNPATLMMFFKSCEPKTFEKMAQLNNKLESRGLVGVECITPYSYKSLAMALQRCVEVLSDEDRSALAFAVVMPPGVDIPVKLWSCVIPVDICSNEEEQLDDEVADRLKRLSKRGALLSGKRMPVLTFKIDHIIHMFLKHVVDAQTIANGISILEQRLLEIGNNNVSVPERHIPSHFQKFRRSSASEMYPKTTEETVIRPEDFPKFMQLHQKFYDSLKNFACC | soluble
MLDKLRSRLVHAGPSLMSVPVKLTPFALKRQVLEQVLSWQFRQALADGELEFLEGRWLSIHVRDIDLKWYTTVENEKLIVSQQADADVSFSADASDLLMIAARKQDPDTLFFQRRLVIEGDTELGLYVKNLMDAIELEQMPKALRVMLLQLADFVEAGMKNSPETKQTSVGEPC | not soluble
MLDSKLKAPVFTVRTQGREYGEFVLEPLERGFGVTLGNPLRRILLSSIPGTAVTSVYIEDVLHEFSTIPGVKEDVVEIILNLKELVVRFLNPSLQTVTLLLKAEGPKEVKARDFLPVADVEIMNPDLHIATLEEGGRLNMEVRVDPGVGYVPAEKHGIKDRINAIPVDAVFSPVRRVAFQVEDTRLGQRTDLDKLTLRIWTDGSVTPLEALNQAVEILREHLTYFSNPQAAAVAAPEEAKEPEAPPEQEEELDLPLEELGLSTRVLHSLKEEGIESVRALLALNLKDLKNIPGIGERSLEEIKEALEKKGFTLKE | soluble
MLDYIPWIGNGYRYGNGYKGVAGAGHSATNGSPAGNTSSTTQSNDVAPTFSNVGVGLKANVQGTLGDSQTTTVGGHQWPTLDPANLQLWTGAEWRNDSKTQNNTTTNENHTKFASATGSGQQQGSTTTTSAGNPDSLKQDKADKSGNSISVQEATSGDNLTNYTNLPPNLTPTSDWPNALSFTNKNNAQRAQLFLRGLLGSIPVLVNNLEHHHHHH | not soluble
MLEADDQGCIEEQGVEDSANEDSVDAKPDRSSFVPSLFSKKKKNVTMRSIKTTRDRVPTYQYNMNFEKLGKCIIINNKNFDKVTGMGVRNGTDKDAEALFKCFRSLGFDVIVYNDCSCAKMQDLLKKASEEDHTNAACFACILLSHGEENVIYGKDGVTPIKDLTAHFRGDRSKTLLEKPKLFFIQACRGTELDDGIQADSGPINDTDANPRYKIPVEADFLFAYSTVPGYYSWRSPGRGSWFVQALCSILEEHGKDLEIMQILTRVNDRVARHFESQSDDPHFHEKKQIPCVVSMLTKELYFSQ | soluble
MLEDLRANSWSLRPCCMVLAYRIAHFCSVWRKKNVLNNLWAAPVLVLYRVITECLFGYEIQAAATIGRRFTIHHGYAVVINKHVVAGDDFTIRHGVTIGNRGADSLACPVIGNGVELGANVILLGDITIGNHVTIGAGSVVLDSIPDHALVVGEKARVKVST | not soluble
MLEEEQALLEKVVETLSNDIEEKEEKIEKLRRSYTNGNGALANIYEDYRSGFKSGIGARPGR | not soluble
MLELKSDDREYTANMLLLNDTDKTVKHKTVGEFYQDLIKQYANESKCGNRLIYKSSYNSLYTFTKGNLDIPFSAINPSWLCNYEKWLRSKGNKETTMSLMLRTLRSTYNKAIENKYARKSDYPFNEYKIGKFDVSTEKRAIAKADIMKLTADISSVGKRQYVQLSKDIFMFSYLCGGINFTDIANLTSKNIVDGKRLHYIRQKTGKLIKLGLSDAALRIIERYAPDSHGYLFPILNVEVHKTALQKQNRIHKILSKVNSNLKLIATQSGLDINLTTYVARHSFATVLKKSGVNIALISEALGHSDLATTQIYLDSFDNEQIDDAMKNLL | not soluble
MLENSKKLIMNFVLKYSKKKRQNSGINISEICKFFEHVPLSCAALGLATKKNFGGEICAFKERKIKNYCKIFEPKSALFQTPPPPLIVGVISGAH | soluble
MLEPCTKRSELLYRMHLLSKEISHVFEQQTNMSFTKVEILFHIKQTPGQSQNRLKEKLYIDSASITRHLKRMEEQGLIVRKKQDENKRYTYLFLTPAGEAELTSLLTEKEKFQTGALEGFSEDEVSALLKSVTKMMNNVEKLEEKLK | not soluble
MLEQVCQLARNAGDAIMQVYDGAKPMEYARKQDDSPVTAADIAAHTVILEGLRTLTPDIPVLSEEDPPAWEVRQHWQRYWLVDPLDGTKEFIKRNGEFTVNIALIEQGKPVLGVVYAPVLKVMYYAAEGKAWKEECGVRKQIQVRDARPPLVVISRSHTDDELTEYLQQLGEHQTTSIGSSLKFCLVAEGQAQLYPRFGPTSVWDTAAGHAIAVAAGAHVHDWQGKTLDYTPRESFLNPGFRVTIY | not soluble
MLETDLEARMQILRESGFQESQGDDDTFAQRAEWFYQGRPLLLSLCLDLYNGYVTLLGRSSHQTRLKPTTSLPNQLLQDDDDCISDIDSVSEVSSEVESTLSFQQMKDPTAVSEKVDELVSQLVTASLDKEILKHELLHKDQQFHEASKTIELLKKFVMLLEMEKEVAVEENANLGYKLTSLLEENRELATEALFMKNEAVGLARCVLKMRDDHFHKVCILQNRIYSLQASRNSEPVSDKVSYGCFGLDKHKTKKKKENKTEEKKPGFKWLKKLNTINLFTKCSLNPSAAAPSCCTFDLPY | not soluble
MLFEDEVGETPGGESYATVVNSRLSELLKRDRIVALLTNPDEVELIEQIECINYKPSISGTGGFVFFVHGDRKTYKILDTDRLALWEDTAATKDVRMSEETRLRFDQNNHLQVSKAKLALDHNGFTLYENTATLARCRRHNKKVVYVLRNGHQYGHGLIMYQYVKPGAHPDPLHQTVQLMTDAWFDILPPDIRMVVYYLLKYNHADETARIVHREHSVYLSRMKAGRPPPPSTSACTS | not soluble
MLFTEMEIEIPKAVFEELQLYIEYLQEKTGKTIDPMAAIGNILQTYFENNGLWGVSEEDFKEKAKIAVKKLLTKKAKKDKPLLTKKVEKLLTQAVEIEQVPAKTAGQIAYQAKALVQVTFPHRDPKTPYYRCDSGKYSLIITADPDHGIPYGTYPRLITCWLVTEIVRTNSRRIVLGKCFSDFLRSIGVGLDSRTRKQVEQQIKRLFSADIKLKYNSKESWQFQRCNVATKAAMWWDTKNPDQFTLDESFVVVGEDFYAMALNAPFPIDLRALAALKQSPMALDIYMWLTLRMCHLAAPYPLSWPQLKSQFGPETSDLDNFRTKFKDALKKVRVVYPHAKLSVNAKELTLFPSPTHVQKAVKRVAALEHHHHHH | soluble
MLGGFVMDLFPFLPGVRISLQSGWLPSGAADALLAGLLEGVPWEVHRIHIFGREVNSPRLSCWVGDPQASYRYSGRCFQPRPWWPALAELRMCLEGETGAVFNSVLLNRYRHGGDAIGWHSDDEAELGIDPLIASVSLGASRRFVFRHRRERHLRAECVLSHGDLLLMGGTTQRDYQHALPRTLRVVGERVNLTFRRILMLEHHHHHH | soluble
MLGIHRYDENLPPDELARDYLERTLFVMERVKFHTLAHLDYPARYAKADFKANRDLIEKILVFLVKNEKALEINTAGLFKHGKPNPDYWIVEMYYDLGGRVVTIGSDAHESQHIGRG | soluble
MLGKGGKRKFDEHEDGLEGKIVSPCDGPSKVSYTLQRQTIFNISLMKLYNHRPLTEPSLQKTVLINNMLRRIQEELKQEGSLRPMFTPSSQPTTEPSDSYREAPPAFSHLASPSSHPCDLGSTTPLEACLTPASLLEDDDDTFCTSQAMQPTAPTKLSPPALLPEKDSFSSALDEIEELCPTSTSTEAATAATDSVKGTSSEAGTQKLDGPQESRADDSKLMDSLPGNFEITTSTGFLTDLTLDDILFADIDTSMYDFDPCTSSSGTASKMAPVSADDLLKTLAPYSSQPVTPSQPFKMDLTELDHIMEVLVGS | soluble
MLGSIACSMEFEDFDLYSYFYGLVKQIPEGYVTTYGDLAQALGDPIAARAVGYMLSINEDPDTIPCYRVVLHDGTVGNYTHPLGPMEKVRRLRADGIPVVDGMIENFDRYRFRDFKTDQPLRKMQQYQEYIARKYSESGAGEFRTVAAFDVSYEERRAFASMVIQDGSTIEAYVISDGINFPYIPGYLAFREFRFIKKLYRKADLLLIDGNGILHPRFAGLATHAGVLLDRASIGVAKHLTRSTRHQDIIYMQDRPVGVMIRKNMIVSPGNFIDVNGSADTVRKMWNDRYPWPLKLAHQLSTRHAETGGRVSEYSIESAHELHLEHHHHHH | soluble
MLGYAFPSILGNLMSKIYQMDAVDWLKTLENCSVDLFITDPPYESLEKYRQIGTTTRLKESKSSSNQWFSVFPNTRFEELFREVYRVLKKGSHFYLFCDQETMFLAKPIAESVGFKFWKPIVWDKCAIGMGYHYRARYEFILFFEKGKRKLNDLSVPDVLEYKRVWKGYPTEKPVELLEVLIRQSSSENEIVADSFFGSGSTLIAANNLSRKYIGCDISSSAHEYFKNRA | not soluble
MLHEIPKEEILEKLKNIGAKKVLIQSPEGLRREAEELAEFLEKNEIEVILHGEINYGACDPADHEARLLGCDALIHLGHSFMMLSLEVPTIFVPAFAKVNVVEALKKNLHEIKKLGKKIIVTTTAQHIHQLERAIEYLKSQGFEPVVGRGDNRVSWPSQVLGCNFSVAKVEGDGILFIGSGTFHPLGLALATGKRVLAVNPYSGDCQWINELAERFIRKRWAQIAKAMDAKRFGVVISTKRGQLRLNEAKRIIKLLKDHGREAKLIAMNDISYSKLEGFSFDAYVIVACPRVPIDDYENWRKPVLTPREVEILLGLREEYIFDEIPGGVREKDEPLGISLHSTRLEHHHHHH | not soluble
MLHRIANGIIEEAAENGCTIIAFEELSGTRDRLPEASWGHKWAFERLYEYVKYKSELHGIDVAVVDPENTSRRCSHCGFTHPDNRDSEAFVCLKCGYENHADYNAAKNIGLRYLRRNQTGDGGGAPVGVRLNRGTLNANGEYETPAGDSGQSGSPRESPTLNEARSSDRAKLEHHHHHH | not soluble
